Experimental data taken from the supplement of paper PMC5998384.

Columns and labels:
HeLa Kyoto [1] = test: thermal stability score vs G1/S (z-score of summed log2 fold changes over temperatures); higher = more thermally stable than in G1/S
HeLa Kyoto [2] = test: solubility in G1/S (NP-40 vs SDS abundance) (log2 ratio); higher = more soluble; conditions: cell cycle stage: G1/S
HeLa Kyoto [3] = test: solubility change mitosis vs G1/S (difference of NP-40 vs SDS log2 ratios) (log2 ratio difference); higher = more soluble in mitosis
HeLa Kyoto [4] = test: melting temperature (median over replicates), in situ; higher = more thermally stable
[5] = cell cycle stage: early G1 (4.5 h after nocodazole release)
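Wherever melting temperature (median over replicates), in situ is given: HeLa Kyoto cells synchronized by double thymidine or nocodazole block, proteins quantified by TMT10plex mass spectrometry, three independent biological replicates.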
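Wherever solubility change mitosis vs G1/S (difference of NP-40 vs SDS log2 ratios) is given: synchronized HeLa Kyoto cells (double thymidine block for G1/S, nocodazole release for mitosis), protein amounts in NP-40 versus SDS lysates quantified by mass spectrometry, three biological replicates.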
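Wherever solubility in G1/S (NP-40 vs SDS abundance) is given: HeLa Kyoto cells arrested at G1/S by double thymidine block, proteins quantified by TMT10plex mass spectrometry in mild NP-40 versus SDS extracts, three biological replicates.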
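Wherever thermal stability score vs G1/S (z-score of summed log2 fold changes over temperatures) is given: synchronized HeLa Kyoto cells, proteins quantified by TMT10plex mass spectrometry, three biological replicates, mitosis taken 0.5 h after nocodazole release, G1/S directly after double thymidine block.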

Sequence of PGRMC1 (chain, as listed by the source): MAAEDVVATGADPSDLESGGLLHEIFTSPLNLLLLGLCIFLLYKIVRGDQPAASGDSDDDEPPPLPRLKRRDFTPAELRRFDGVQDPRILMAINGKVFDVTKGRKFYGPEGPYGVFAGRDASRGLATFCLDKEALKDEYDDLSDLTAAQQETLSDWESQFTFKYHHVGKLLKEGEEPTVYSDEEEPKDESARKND

**Q.** “MAPRLQLEKAAWRWAETVRPEEVSQEHIETAYRIWLEPCIRGVCRRNCKGNPNCLVGIGEHIWLGEIDENSFHNIDDPNCERRKKNSFVGLTNLGATCYVNTFLQVWFLNLELRQALYLCPSTCSDYMLGDGIQEEKDYEPQTICEHLQYLFALLQNSNRRYIDPSGFVKALGLDTGQQQDAQEFSKLFMSLLEDTLSKQKNPDVRNIVQQQFCGEYAYVTVCNQCGRESKLLSKFYELELNIQGHKQLTDCISEFLKEEKLEGDNRYFCENCQSKQNATRKIRLLSLPCTLNLQLMRFVFDRQTGHKKKLNTYIGFSEILDMEPYVEHKGGSYVYELSAVLIHRGVSAYSGHYIAHVKDPQSGEWYKFNDEDIEKMEGKKLQLGIEEDLAEPSKSQTRKPKCGKGTHCSRNAYMLVYRLQTQEKPNTTVQVPAFLQELVDRDNSKFEEWCIEMAEMRKQSVDKGKAKHEEVKELYQRLPAGAEPYEFVSLEWLQKWLDESTPTKPIDNHACLCSHDKLHPDKISIMKRISEYAADIFYSRYGGGPRLTVKALCKECVVERCRILRLKNQLNEDYKTVNNLLKAAVKGSDGFWVGKSSLRSWRQLALEQLDEQDGDAEQSNGKMNGSTLNKDESKEERKEEEELNFNEDILCPHGELCISENERRLVSKEAWSKLQQYFPKAPEFPSYKECCSQCKILEREGEENEALHKMIANEQKTSLPNLFQDKNRPCLSNWPEDTDVLYIVSQFFVEEWRKFVRKPTRCSPVSSVGNSALLCPHGGLMFTFASMTKEDSKLIALIWPSEWQMIQKLFVVDHVIKITRIEVGDVNPSETQYISEPKLCPECREGLLCQQQRDLREYTQATIYVHKVVDNKKVMKDSAPELNVSSSETEEDKEEAKPDGEKDPDFNQSNGGTKRQKISHQNYIAYQKQVIRRSMRHRKVRGEKALLVSANQTLKELKIQIMHAFSVAPFDQNLSIDGKILSDDCATLGTLGVIPESVILLKADEPIADYAAMDDVMQVCMPEEGFKGTGLLGH [USP48]” was tested. Which thermal stability score (HeLa Kyoto [1]; [5]) did it give?
**A.** 1.52

**Q.** What about the thermal stability score (HeLa Kyoto [1]; cell cycle stage: mitosis) of the same substance?
**A.** 2.6

**Q.** What about the “solubility in G1/S (log2)” value (HeLa Kyoto [2]) of the same substance?
**A.** -0.074

**Q.** And the “solubility change mitosis (log2)” value (HeLa Kyoto [3])?
**A.** -0.183

**Q.** What about the melting temperature (HeLa Kyoto [4]; cell cycle stage: G1/S) of the same substance?
**A.** 47.4 °C

**Q.** What about the melting temperature (HeLa Kyoto [4]; cell cycle stage: mitosis) of the same substance?
**A.** 49.1 °C

**Q.** “MAALVVSGAAEQGGRDGPGRGRAPRGRVANQIPPEILKNPQLQAAIRVLPSNYNFEIPKTIWRIQQAQAKKVALQMPEGLLLFACTIVDILERFTEAEVMVMGDVTYGACCVDDFTARALGADFLVHYGHSCLIPMDTSAQDFRVLYVFVDIRIDTTHLLDSLRLTFPPATALALVSTIQFVSTLQAAAQELKAEYRVSVPQCKPLSPGEILGCTSPRLSKEVEAVVYLGDGRFHLESVMIANPNVPAYRYDPYSKVLSREHYDHQRMQAARQEAIATARSAKSWGLILGTLGRQGSPKILEHLESRLRALGLSFVRLLLSEIFPSKLSLLPEVDVWVQVACPRLSIDWGTAFPKPLLTPYEAAVALRDISWQQPYPMDFYAGSSLGPWTVNHGQDRRPHAPGRPARGKVQEGSARPPSAVACEDCSCRDEKVAPLAP [DPH1]” was tested. Which thermal stability score (HeLa Kyoto [1]; [5]) did it give?
**A.** -0.776

**Q.** What about the thermal stability score (HeLa Kyoto [1]; cell cycle stage: mitosis) of the same substance?
**A.** -1.19

**Q.** And the “solubility in G1/S (log2)” value (HeLa Kyoto [2])?
**A.** 0.145

**Q.** And the “solubility change mitosis (log2)” value (HeLa Kyoto [3])?
**A.** -0.202

**Q.** What about the melting temperature (HeLa Kyoto [4]; cell cycle stage: G1/S) of the same substance?
**A.** 53 °C

**Q.** What about the melting temperature (HeLa Kyoto [4]; cell cycle stage: mitosis) of the same substance?
**A.** 53 °C

**Q.** Which thermal stability score (HeLa Kyoto [1]; [5]) does the source give for “MAVEELQSIIKRCQILEEQDFKEEDFGLFQLAGQRCIEEGHTDQLLEIIQNEKNKVIIKNMGWNLVGPVVRCLLCKDKEDSKRKVYFLIFDLLVKLCNPKELLLGLLELIEEPSGKQISQSILLLLQPLQTVIQKLHNKAYSIGLALSTLWNQLSLLPVPYSKEQIQMDDYGLCQCCKALIEFTKPFVEEVIDNKENSLENEKLKDELLKFCFKSLKCPLLTAQFFEQSEEGGNDPFRYFASEIIGFLSAIGHPFPKMIFNHGRKKRTWNYLEFEEEENKQLADSMASLAYLVFVQGIHIDQLPMVLSPLYLLQFNMGHIEVFLQRTEESVISKGLELLENSLLRIEDNSLLYQYLEIKSFLTVPQGLVKVMTLCPIETLRKKSLAMLQLYINKLDSQGKYTLFRCLLNTSNHSGVEAFIIQNIKNQIDMSLKRTRNNKWFTGPQLISLLDLVLFLPEGAETDLLQNSDRIMASLNLLRYLVIKDNENDNQTGLWTELGNIENNFLKPLHIGLNMSKAHYEAEIKNSQEAQKSKDLCSITVSGEEIPNMPPEMQLKVLHSALFTFDLIESVLARVEELIEIKTKSTSEENIGIK [GLMN]” here?
**A.** 0.45

**Q.** And the thermal stability score (HeLa Kyoto [1]; cell cycle stage: mitosis)?
**A.** 0.785

**Q.** And the “solubility in G1/S (log2)” value (HeLa Kyoto [2])?
**A.** 0.0671

**Q.** And the “solubility change mitosis (log2)” value (HeLa Kyoto [3])?
**A.** -0.21

**Q.** And the melting temperature (HeLa Kyoto [4]; cell cycle stage: G1/S)?
**A.** 52.2 °C

**Q.** And the melting temperature (HeLa Kyoto [4]; cell cycle stage: mitosis)?
**A.** 51.3 °C

**Q.** “MESGAYGAAKAGGSFDLRRFLTQPQVVARAVCLVFALIVFSCIYGEGYSNAHESKQMYCVFNRNEDACRYGSAIGVLAFLASAFFLVVDAYFPQISNATDRKYLVIGDLLFSALWTFLWFVGFCFLTNQWAVTNPKDVLVGADSVRAAITFSFFSIFSWGVLASLAYQRYKAGVDDFIQNYVDPTPDPNTAYASYPGASVDNYQQPPFTQNAETTEGYQPPPVY [SYNGR2]” was tested. Which thermal stability score (HeLa Kyoto [1]; [5]) did it give?
**A.** -2

**Q.** And the thermal stability score (HeLa Kyoto [1]; cell cycle stage: mitosis)?
**A.** -3.51

**Q.** What about the “solubility in G1/S (log2)” value (HeLa Kyoto [2]) of the same substance?
**A.** 0.192

**Q.** What about the “solubility change mitosis (log2)” value (HeLa Kyoto [3]) of the same substance?
**A.** -0.171

**Q.** And the melting temperature (HeLa Kyoto [4]; cell cycle stage: G1/S)?
**A.** 54.9 °C

**Q.** What about the melting temperature (HeLa Kyoto [4]; cell cycle stage: mitosis) of the same substance?
**A.** 56.3 °C

**Q.** Which results are given for PGRMC1?
**A.** thermal stability score (HeLa Kyoto [1]; [5]): -0.433; thermal stability score (HeLa Kyoto [1]; cell cycle stage: mitosis): -0.0697; solubility in G1/S (log2) (HeLa Kyoto [2]): 0.15; solubility change mitosis (log2) (HeLa Kyoto [3]): 0.219; melting temperature (HeLa Kyoto [4]; cell cycle stage: G1/S): 53.1 °C; melting temperature (HeLa Kyoto [4]; cell cycle stage: mitosis): 52.8 °C
